From PMC9676404, “Three-dimensional structure of a mycobacterial oligoribonuclease reveals a unique C-terminal tail that stabilizes the homodimer” (The Journal of Biological Chemistry, 2022)

Legend:
[1] = biological target: Ms_ornΔC (C-terminal deletion mutant of Ms_orn lacking residues 186-209) (Mycobacterium smegmatis mc2155); assay: not stated; oligomeric state of purified Ms_ornΔC, shown in Fig. S3
[2] = biological target: Orn of Mycobacterium smegmatis (MSMEG_4724, clone B) (Mycobacterium smegmatis mc2155); assay: SEC-MALS; Superdex-75 (10/300) with in-line MALLS and refractive index detectors, room temperature, 20 mM Tris-HCl pH 8.5, 100 mM NaCl, 5% glycerol, 0.5 ml/min; 200 ul of 3 mg/ml Ms_orn or 6 mg/ml Eco_orn
[3] = biological target: Orn of Mycobacterium smegmatis (MSMEG_4724, clone B) (Mycobacterium smegmatis mc2155); assay: SEC; Superdex-75 column, Ms_orn with increasing concentrations of Gdm-HCl
[4] = biological target: Orn of Mycobacterium smegmatis (MSMEG_4724, clone B) (Mycobacterium smegmatis mc2155); assay: SEC; Superdex-75 (10/300) column, 20 mM Tris-HCl pH 8.5, 100 mM NaCl; elution volume compared with molecular weight standards
[5] = biological target: the molecule itself; assay: as above

## Ms_ornΔC (C-terminal deletion mutant of Ms_orn lacking residues 186-209) (domain or fragment)
[1]
  stoichiometry N: 2

## Orn of Mycobacterium smegmatis (MSMEG_4724, clone B) (enzyme)
[2]
  stoichiometry N: 2
[3]
  stoichiometry N: 2
[4]
  stoichiometry N: 2

B1: Orn of Escherichia coli (enzyme, Escherichia coli K-12, UniProt P0A784 1-181, looked up)
chain: MSANENNLIWIDLEMTGLDPERDRIIEIATLVTDANLNILAEGPTIAVHQSDEQLALMDDWNVRTHTASGLVERVKASTMGDREAELATLEFLKQWVPAGKSPICGNSIGQDRRFLFKYMPELEAYFHYRYLDVSTLKELARRWKPEILDGFTKQGTHQAMDDIRESVAELAYYREHFIKL
notes: Oligoribonuclease (Orn) of Escherichia coli K-12; open reading frame of orn amplified from genomic DNA; residues 2-181 traced in the structure; also called oligoribonuclease; not shown: His10-Smt3, N-terminal, cleaved
[5]
  stoichiometry N: 2
